Experiments:
[1] = target: T1, monomeric TTR (UniProt P02766 21-147); experiment: BIACORE (SPR); off-rate from monomers
[2] = target: T2, aggregated TTR (UniProt P02766 21-147); experiment: BIACORE (SPR); off-rate from amyloid (aggregated TTR)
[3] = target: T2, aggregated TTR; experiment: BIACORE (SPR), apparent affinity with avidity; same value in mass units; same KD in mass units
[4] = target: T2, aggregated TTR; experiment: BIACORE (SPR), apparent affinity with avidity; aggregated TTR; apparent affinity (affinity+avidity)
[5] = target: T1, monomeric TTR; experiment: BIACORE (SPR); monomeric TTR (affinity)

koff [1]: 0.0037 s⁻¹
koff [2]: 0.0002 s⁻¹
Kd [3]: 0.48 µg/mL
Kd [4]: 3.2 nM
Kd [5]: 134 nM
B1: PRX004 (antibody, human IgG1, kappa, V domains shown)
VH: EVQLVESGGGLVQPGGSLKLSCAASGFTFSSYTMSWVRQTPEKRLELVAEINNSGDTTYYPDTVKGRFTISRDNAKNTLYLQMSSLKSEDTAMYYCARHYYYGGGYGGWFFDVWGQGTLVTVSS
VL: DIVMTQSPLSLPVTPGEPASISCRSSKSLLHSNGNTYLYWFLQKPGQSPQLLIYRVSNLASGVPSRFSGSGSGTDFTLKISRVEAEDVGVYYCMQHLEYPLTFGQGTKLEIKR
notes: Humanized IgG1 kappa monoclonal antibody; also called humanized immunoglobulin (Ig) G1 kappa mAb
